Experiments:
[1] = target: T1, 人PD-L1 his(Acro，货号:PD1-H5229) (human, UniProt Q9NZQ7 19-238); test: BLI (Octet RED96e), affinity format: antibody on AHC sensor, human PD-L1 his in solution
T1 construct: Bought protein; also called human PD-L1 his; not shown: His tag

[2] = target: T2, 生物素标记的人PD-L1(acro，货号:PD1-H82E5) (human, UniProt Q9NZQ7 19-238, biotin label (site not stated)); test: BLI (Octet RED96e), avidity format: Biotin hPD-L1 on SA sensor, antibody in solution
T2 construct: Bought biotinylated protein; also called Biotin hPD-L1; BiotinhPD-L1

[3] = target: T3, 猴PD-L1-Fc(Acro，货号:PD1-C5253) (monkey (cynomolgus)); test: BLI (Octet RED96e), avidity format: antibody on CH1 sensor, monkey PD-L1-Fc in solution
T3 construct: Bought Fc fusion; also called Cyno PD-L1; 食蟹猴PD-L1

[4] = target: T4, 生物素标记的鼠PD-L1(Sino，货号:50010-M08H-B) (mouse, UniProt Q9EP73 19-238, biotin label (site not stated)); test: BLI (Octet RED96e), avidity format: Biotin mPD-L1 on SA sensor, antibody in solution
T4 construct: Bought biotinylated protein; also called Biotin mPD-L1

[5] = target: T5, CHOK1-h PD-L1(GenScript M00543)细胞表面PD-L1 (human, UniProt Q9NZQ7 19-290); test: FACS competition: blocks Biotin PD-1 mFc binding to CHOK1-hPD-L1 cells
T5 construct: whole, on cells; also called 细胞表面抗原PD-L1

[6] = target: T5, CHOK1-h PD-L1(GenScript M00543)细胞表面PD-L1; test: FACS on CHOK1-hPD-L1 cells

T4 sequence (Q9EP73 19-238 limits assumed, stated change not applied): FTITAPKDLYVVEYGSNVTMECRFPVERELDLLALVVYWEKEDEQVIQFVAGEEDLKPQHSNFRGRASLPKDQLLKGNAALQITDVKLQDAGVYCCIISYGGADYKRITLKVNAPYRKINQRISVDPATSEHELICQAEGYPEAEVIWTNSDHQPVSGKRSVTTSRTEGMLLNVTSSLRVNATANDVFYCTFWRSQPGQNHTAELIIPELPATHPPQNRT

- Kd [1]: ~26 nM
- Kd [2]: ~0.15 nM
- Kd [3]: ~0.79 nM
- Kd [4]: ~0.58 nM
- IC50 [5]: 1.02 µg/mL
- EC50 [6]: 0.02 µg/mL
B1: Ab1910T2 (antibody, human IgG1, kappa, N297A, V domains shown)
VH: EVQLVESGGGLVQPGGSLRLSCAASGFPFTNYAMSWVRQAPGKGLEWVSSISGSGAGTYYADSVKGRFTISRDNSKNTLYLQMNSLRAEDTAVYYCAKDLFPTIFGVVTTNYMDVWGKGTTVTVSS
VL: DIQMTQSPSSLSASVGDRVTITCRASQSISSYLNWYQQKPGKAPKLLIYSASSLQIGVPSRFSGSGSGTDFTLTISSLQPEDFATYYCQQSYSIPVTFGQGTKVEIKR
notes: Full human IgG1 (Fc N297A) / kappa, made in ExpiCHO; also called 本申请抗PD-L1抗体Ab1910T2; 所述抗PD-L1单克隆抗体
